Test results from paper PMC3110719.
Read-outs that look alike come from different tables or passages of the source.

Test system: Nc1ncnc2c1ncn2[C@@H]1O[C@H](COP(=O)(O)OP(=O)(O)OP(=O)(O)O)[C@@H](O)[C@H]1O
Assay: purified protein

Substance	Km (1 µM MsbA, 0-1 mM ATP, 30 min) [µM]	Km [µM]
MsbA (Escherichia coli K-12; D512G)	122 ± 29	
MsbA (Escherichia coli K-12; L511P)		23 ± 12
